Test results as given in patent publication US20190282704A1.
Changes are numbered by the printed parent chain.

B1: ZTS-927 (antibody)
heavy: QVLLVQSGAEVRTPGASVKIFCKASGYSFTSYTIHWLRQAPAQGLEWMGNINPTSGYTENNQRFKDRLTLTADTSTNTAYMELSSLRSADTAMYYCARWGFKYDGEWSFDVWGAGTTVTVSSASTTAPSVFPLAPSCGTTSGATVALACLVLGYFPEPVTVSWNSGALTSGVHTFPAVLQASGLYSLSSMVTVPSSRWLSDTFTCNVAHPPSNTKVDKTVRKTDHPPGPKPCDCPKCPPPEMLGGPSIFIFPPKPKDTLSISRTPEVTCLVVDLGPDDSDVQITWFVDNTQVYTAKTSPREEQFNSTYRVVSVLPILHQDWLKGKEFKCKVNSKSLPSPIERTISKAKGQPHEPQVYVLPPAQEELSRNKVSVTCLIKSFHPPDIAVEWEITGQPEPENNYRTTPPQLDSDGTYFVYSKLSVDRSHWQRGNTYTCSVSHEALHSHHTQKSLTQSPGK
light: EIQMTQSPSSLSASPGDRVTITCRASQGISIWLSWYQQKPGNIPKVLINKASNLHIGVPSRFSGSGSGTDFTLTISSLEPEDAATYYCLQSQTYPLTFGGGTKLEIKRSDAQPSVFLFQPSLDELHTGSASIVCILNDFYPKEVNVKWKVDGVVQNKGIQESTTEQNSKDSTYSLSSTLTMSSTEYQSHEKFSCEVTHKSLASTLVKSFQRSECQRE
B2: mouse: canine 11E12 chimera (antibody)
heavy: QVQLQQSGAELVKPGASVKLSCKASGYTFKYYDINWVRQRPEQGLEWIGWIFPGDGGTKYNETFKGKATLTTDKSSSTAYMQLSRLTSEDSAVYFCARGGTSVIRDAMDYWGQGTSVTVSSASTTAPSVFPLAPSCGSTSGSTVALACLVSGYFPEPVTVSWNSGSLTSGVHTFPSVLQSSGLYSLSSMVTVPSSRWPSETFTCNVAHPASKTKVDKPVPKRENGRVPRPPDCPKCPAPEMLGGPSVFIFPPKPKDTLLIARTPEVTCVVVDLDPEDPEVQISWFVDGKQMQTAKTQPREEQFNGTYRVVSVLPIGHQDWLKGKQFTCKVNNKALPSPIERTISKARGQAHQPSVYVLPPSREELSKNTVSLTCLIKDFFPPDIDVEWQSNGQQEPESKYRTTPPQLDEDGSYFLYSKLSVDKSRWQRGDTFICAVMHEALHNHYTQESLSHSPGK
light: DIVLTQSPASLAVSLGQRATISCRASESVDNYGISFMHWYQQKPGQPPKLLIYRASNLESGIPARFSGSGSRTDFTLTINPVETDDVATYYCQQSNKDPLTFGAGTKLELKRNDAQPAVYLFQPSPDQLHTGSASVVCLLNSFYPKDINVKWKVDGVIQDTGIQESVTEQDKDSTYSLSSTLTMSSTEYLSHELYSCEITHKSLPSTLIKSFQRSEC
B3: mouse: feline 11E12 chimera (antibody)
heavy: QVQLQQSGAELVKPGASVKLSCKASGYTFKYYDINWVRQRPEQGLEWIGWIFPGDGGTKYNETFKGKATLTTDKSSSTAYMQLSRLTSEDSAVYFCARGGTSVIRDAMDYWGQGTSVTVSSASTTAPSVFPLAPSCGTTSGATVALACLVLGYFPEPVTVSWNSGALTSGVHTFPAVLQASGLYSLSSMVTVPSSRWLSDTFTCNVAHPPSNTKVDKTVRKTDHPPGPKPCDCPKCPPPEAAGAPSIFIFPPKPKDTLSISRTPEVTCLVVDLGPDDSDVQITWFVDNTQVYTAKTSPREEQFNSTYRVVSVLPILHQDWLKGKEFKCKVNSKSLPSPIERTISKAKGQPHEPQVYVLPPAQEELSRNKVSVTCLIKSFHPPDIAVEWEITGQPEPENNYRTTPPQLDSDGTYFVYSKLSVDRSHWQRGNTYTCSVSHEALHSHHTQKSLTQSPGK
light: DIVLTQSPASLAVSLGQRATISCRASESVDNYGISFMHWYQQKPGQPPKLLIYRASNLESGIPARFSGSGSRTDFTLTINPVETDDVATYYCQQSNKDPLTFGAGTKLELKRSDAQPSVFLFQPSLDELHTGSASIVCILNDFYPKEVNVKWKVDGVVQNKGIQESTTEQNSKDSTYSLSSTLTMSSTEYQSHEKFSCEVTHKSLASTLVKSFQRSECQRE
B4: Feline 11E12 1.2 (antibody, V domains shown)
VH: QVLLVQSGAEVKKPGASVKIFCKASGYSFTYYDINWLRQAPEQGLEWMGWIFPGDGGTKYNETFKGRLTLTADTSTNTVYMELSSLRSADTAMYYCARGGTSVIRDAMDYWGQGALVTVSS
VL: EVVLTQSSAFLSRTLKEKATITCRASESVDNYGISFMHWYQQKPNQAPKLLVKRASNLESGAPSRFSGSGSGTDFTLTISSPEPEDAATYYCQQSNKDPLTFGQGT
B5: Feline 11E12 1.1 FW2 (antibody, V domains shown)
VH: B4 VH
VL: EIQMTQSPSSLSASPGDRVTITCRASESVDNYGISFMHWYQQKPGQPPKLLIYRASNLESGVPSRFSGSGSGTDFTLTISSLEPEDAATYYCQQSNKDPLTFGQGT
B6: ZIL69 (antibody, V domains shown)
VH: EVQLVESGGDLVKPAGSLRLSCVASGFTFSSYAMKWVRQAPGKGLQWVATINNDGTRTGYADAVRGRFTISKDNAKNTLYLQMDSLRADDTAVYYCTKGNAESGCTGDHCPPYWGQGTLVTVSS
VL: SSVLTQPPSVSVSLGQTATISCSGESLNKYYAQWFQQKAGQAPVLVIYKDTERPSGIPDRFSGSSAGNTHTLTISGARAEDEADYYCESAVSSETNVFGSGTQLTVLR
B7: ZIL9 (antibody, V domains shown)
VH: EVQLVESGGDLVKPPGSLRLSCVASGFTFSSYDMTWVRQAPGKGLQWVADVNSGGTGTAYAVAVKGRFTISRDNAKKTLYLQMNSLRAEDTAVYYCAKLGVRDGLSVWGQGTLVTVSS
VL: SSVLTQPPSVSVSLGQTATISCSGESLNEYYTQWFQQKAGQAPVLVIYRDTERPSGIPDRFSGSSSGNTHTLTISGARAEDEADYYCESAVDTGTLVFGGGTHLAVLR
B8: ZIL171 (antibody, V domains shown)
VH: EVQLVESGGDLVKPAGSLRLSCVASGFTFRTYVMNWVRQAPGKGLQWVASINGGGSSPTYADAVRGRFTVSRDNAQNSLFLQMNSLRAEDTAIYFCVVSMVGPFDYWGHGTLVTVSS
VL: B6 VL with E25K, N28S, K29Y, A66S, E94D, N96I, S100G, Q103H
B9: ZIL154 (antibody, V domains shown)
VH: EVHLVESGGDLVKPWGSLRLSCVASGFTFSDRGMSWVRQSPGKGLQWVAYIRYDGSRTDYADAVEGRFTISRDNAKNTLYLQMNSLRAEDTAVYYCARWDGSSFDYWGQGTLVTVSS
VL: DIVVTQTPLSLSVSPGETASFSCKASQSLLHSDGNTYLDWFRQKPGQSPQRLIYKVSNRDPGVPDRFSGSGSGTDFTLRISGVEADDAGLYYCMQAIHFPLTFGAGTKVELKR
B10: ZIL94 (antibody, V domains shown)
VH: EVQLVDSGGDLVKPGGSLRLSCVASGFTFSTYFMSWVRQAPGRGLQWVALISSDGSGTYYADAVKGRFTISRDNAKNTLYLQMNSLRAEDTAMYYCAIFWRAFNDWGQGTLVTVSS
VL: QTVVIQEPSLSVSPGGTVTLTCGLNSGSVSTSNYPGWYQQTRGRTPRTIIYDTGSRPSGVPNRFSGSISGNKAALTITGAQPEDEADYYCSLYTDSDILVFGGGTHLTVLR
B11: ZIL1 (antibody, V domains shown)
VH: EVQLVESGGDLVKPGGSLRLSCVASGFTFSSYGMSWVRQAPGKGLQWVAHINSGGSSTYYADAVKGRFTISRDNAKNTLYLQMNSLRAEDTAVYYCVEVYTTLAAFWTDNFDYWGQGTLVTVSS
VL: QSVLTQPTSVSGSLGQRVTISCSGSTNNIGILAATWYQQLPGKAPKVLVYSDGNRPSGVPDRFSGSKSGNSATLTITGLQAEDEADYYCQSFDTTLDAYVFGSGTQLTVLR
B12: ZIL159 (antibody, V domains shown)
VH: EVQLVESGGDLVKPAGSLRLSCVASGFTFSSYVMTWVRQAPGKGLQWVAGINSEGSRTAYADAVKGRFTISRDNAKNTLYLQIDSLRAEDTAIYYCATGDIVATGTSYWGQGTLVTVSS
VL: SNVLTQPPSVSVSLGQTATISCSGETLNRFYTQWFQQKAGQAPVLVIYKDTERPSGIPDRFSGSSSGNIHTLTISGARAEDEAAYYCKSAVSIDVGVFGGGTHLTVFR
B13: Feline 15H05 3.2 (antibody, V domains shown)
VH: QVLLVQSGAEVRKPGASVKIFCKASGYSFTSYTIHWLRQAPEQGLEWMGNINPTSGYTENNQRFKDRLTLTADTSTNTAYMELSSLRSADTAMYYCARWGFKYDGEWSFDVWGAGTTVTVSS
VL: EITMTQSPGSLAGSPGQQVTMNCRASQGISIWLSWYQQKPGQHPKLLIYKASNLHIGVPDRFSGSGSGTDFTLTISNLQAEDVASYYCLQSQTYPLTFGGGTKLEIK

The binders below were run against wildtype feline IL-31 (Feline_IL31_wildtype) (feline) (assay: not given).
Chain of wildtype feline IL-31 (Feline_IL31_wildtype) (feline) (chain, as listed by the source limits assumed, form in doubt): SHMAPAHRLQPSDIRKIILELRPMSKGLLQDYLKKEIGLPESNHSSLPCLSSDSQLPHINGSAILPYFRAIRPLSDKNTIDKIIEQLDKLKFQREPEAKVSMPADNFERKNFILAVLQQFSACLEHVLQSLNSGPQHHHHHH

Row | IC50, inhibition of feline IL-31-induced STAT3 phosphorylation, canine DH82 cells [µg/mL] | IC50, inhibition of feline IL-31-induced STAT3 phosphorylation, feline FCWF4 cells [µg/mL] | Binder
1 | 1.57 | 5.26 | B1
2 |  | 1.15 | B2
3 | 4.4 | 3.45 | B3
4 | > 100 | > 100 | B4
5 | 5.66 | 4.38 | B5

These binders were tested against feline IL-31 15H05 mutant (Feline_IL31_15H05 mutant) (feline) (assay: indirect ELISA, coated IL-31).
Chain of feline IL-31 15H05 mutant (Feline_IL31_15H05 mutant) (feline) (chain, as listed by the source mutant limits assumed, form in doubt): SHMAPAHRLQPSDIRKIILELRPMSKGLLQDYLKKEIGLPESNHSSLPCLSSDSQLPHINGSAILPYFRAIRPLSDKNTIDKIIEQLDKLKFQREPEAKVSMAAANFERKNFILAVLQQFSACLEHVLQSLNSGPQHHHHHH

Row | Binding (ELISA OD) [OD] | Binder
6 | 0.92 | B6
7 | 0.73 | B7
8 | 0.93 | B8
9 | 1.38 | B9
10 | 1.3 | B10
11 | 0.92 | B11
12 | 1.31 | B12

Each binder was assayed against wildtype feline IL-31 (Feline_IL31_wildtype) (feline) (assay: indirect ELISA, coated IL-31).

Row | Binding (ELISA OD) [OD] | Binder
13 | 1.48 | B6
14 | 1.8 | B7
15 | 1.42 | B8
16 | 1.62 | B9
17 | 1.67 | B10
18 | 1.89 | B11
19 | 1.6 | B12

The binders below were run against canine IL-31 (Canine_IL31) (canine) (assay: SPR (Biacore), immobilised IL-31, 1:1 fit).
Chain of canine IL-31 (Canine_IL31) (canine) (chain, as listed by the source limits assumed, form in doubt): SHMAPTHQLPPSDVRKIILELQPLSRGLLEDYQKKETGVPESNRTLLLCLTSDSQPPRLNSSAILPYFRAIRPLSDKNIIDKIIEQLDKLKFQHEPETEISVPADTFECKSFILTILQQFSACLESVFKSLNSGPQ

Row | Kd [nM] | koff [s⁻¹] | kon [M⁻¹ s⁻¹] | Binder
20 | 0.000826 | 6.55e-07 | 793000 | B2
21 | 0.000127 | 8.7e-08 | 684000 | B3
22 | 7.02 | 0.000318 | 45200 | B5
23 | 0.204 | 6.04e-06 | 29700 | B13

What follows are binders tested against wildtype feline IL-31 (Feline_IL31_wildtype) (feline) (assay: SPR (Biacore), immobilised IL-31, 1:1 fit).

Row | Kd [nM] | koff [s⁻¹] | kon [M⁻¹ s⁻¹] | Binder
24 | 0.614 | 2.3e-05 | 37400 | B1
25 | 0.248 | 0.000108 | 437000 | B2
26 | 0.13 | 5.06e-05 | 388000 | B3
27 | 0.75 | 0.000639 | 852000 | B5
28 | 12.6 | 0.00166 | 132000 | B13
